How the values were obtained:
[1] = molecular target: T1, Full-length human TIGIT on CHO cells overexpressing TIGIT (human, UniProt Q495A1 22-244); assay: cell ELISA on fixed CHO cells overexpressing human TIGIT
T1 construct: also called TIGIT-CHO cells; CHO cells overexpressing human TIGIT
T1 sequence: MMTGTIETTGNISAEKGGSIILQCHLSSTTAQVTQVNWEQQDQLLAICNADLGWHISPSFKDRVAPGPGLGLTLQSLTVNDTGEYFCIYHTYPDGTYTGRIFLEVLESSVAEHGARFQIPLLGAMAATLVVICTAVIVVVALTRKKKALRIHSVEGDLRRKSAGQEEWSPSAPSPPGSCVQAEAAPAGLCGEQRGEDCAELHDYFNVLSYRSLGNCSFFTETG

[2] = molecular target: T2, human TIGIT on SEB-activated human PBMC (human, UniProt Q495A1); assay: flow cytometry on SEB-activated human PBMC, PE anti-human IgG, MFI
T2 construct: native, on the cell surface
T2 sequence (receptor chain, looked up): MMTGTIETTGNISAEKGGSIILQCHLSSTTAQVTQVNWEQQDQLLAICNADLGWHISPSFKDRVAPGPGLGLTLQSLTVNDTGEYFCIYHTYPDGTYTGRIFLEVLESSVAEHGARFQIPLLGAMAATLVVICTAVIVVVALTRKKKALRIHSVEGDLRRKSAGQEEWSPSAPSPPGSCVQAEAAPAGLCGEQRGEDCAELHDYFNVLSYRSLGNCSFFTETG

[3] = molecular target: T3, TIGIT fusion protein with Fc or mFc tag (human, UniProt Q495A1 22-141); assay: HTRF blocking assay: TIGIT-Fc or TIGIT-mFc with biotinylated CD155 as the blocked ligand, ratio 665/620
T3 construct: extracellular domain; also called TIGIT-Fc; TIGIT-mFc
T3 sequence (looked up): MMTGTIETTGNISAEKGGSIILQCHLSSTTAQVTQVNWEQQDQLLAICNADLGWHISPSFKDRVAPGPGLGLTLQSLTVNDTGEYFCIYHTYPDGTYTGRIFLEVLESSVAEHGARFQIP

[4] = molecular target: T3, TIGIT fusion protein with Fc or mFc tag; assay: ELISA: human TIGIT-Fc or TIGIT-mFc captured by coated anti-Fc antibody, HRP secondary antibody, OD450
[5] = molecular target: T1, Full-length human TIGIT on CHO cells …; assay: FACS blocking assay on TIGIT-CHO cells; competitor CF633-labeled CD155-Fc at 2 ug/ml
[6] = molecular target: T3, TIGIT fusion protein with Fc or mFc tag; assay: FACS blocking assay: TIGIT-mFc pre-incubated with the antibody, added to CHO cells overexpressing CD112 (blocked ligand), PE anti-mouse IgG, MFI
[7] = molecular target: T3, TIGIT fusion protein with Fc or mFc tag; assay: blocking cell ELISA: TIGIT-hFc or TIGIT-mFc (0.2 ug/ml) pre-mixed with the antibody, added to fixed CHO cells overexpressing CD155 (blocked ligand), OD450
[8] = molecular target: T4, cynoTIGIT-mFc (fusion protein of cynoTIGIT extracellular domain and mouse IgG2a Fc fragment) (cynomolgus); assay: ELISA: cynomolgus TIGIT-Fc or TIGIT-mFc captured by coated anti-Fc antibody, HRP secondary antibody, OD450
T4 construct: also called monkey TIGIT; cynomolgus TIGIT-mFc fusion protein

[9] = molecular target: T5, human TIGIT (Sinobiological Co., Ltd., Cat. 10917-H08-H) (human, UniProt Q495A1 22-141); assay: SPR (Biacore T200), antibody captured via Protein A, huTIGIT in mobile phase, 1:1 Langmuir fit
T5 construct: also called huTIGIT; TIGIT-His
T5 sequence (looked up): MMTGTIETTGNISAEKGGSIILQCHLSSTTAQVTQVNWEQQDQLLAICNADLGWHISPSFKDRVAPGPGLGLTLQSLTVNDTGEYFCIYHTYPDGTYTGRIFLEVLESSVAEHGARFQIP

[10] = molecular target: T5, human TIGIT (Sinobiological Co., Ltd., …); assay: SPR (Biacore), captured antibody, TIGIT-His as analyte
[11] = molecular target: T3, TIGIT fusion protein with Fc or mFc tag; assay: HTRF blocking assay: TIGIT-Fc or TIGIT-mFc with biotinylated CD155 as the blocked ligand, ratio 665/620; remark: listed apart in the source
[12] = molecular target: T4, cynoTIGIT-mFc (fusion protein of …); assay: SPR (Biacore T200), antibody held by Fc affinity capture, cynoTIGIT-mFc in mobile phase, 1:1 Langmuir fit

T4 sequence (chain, as listed by the source limits assumed): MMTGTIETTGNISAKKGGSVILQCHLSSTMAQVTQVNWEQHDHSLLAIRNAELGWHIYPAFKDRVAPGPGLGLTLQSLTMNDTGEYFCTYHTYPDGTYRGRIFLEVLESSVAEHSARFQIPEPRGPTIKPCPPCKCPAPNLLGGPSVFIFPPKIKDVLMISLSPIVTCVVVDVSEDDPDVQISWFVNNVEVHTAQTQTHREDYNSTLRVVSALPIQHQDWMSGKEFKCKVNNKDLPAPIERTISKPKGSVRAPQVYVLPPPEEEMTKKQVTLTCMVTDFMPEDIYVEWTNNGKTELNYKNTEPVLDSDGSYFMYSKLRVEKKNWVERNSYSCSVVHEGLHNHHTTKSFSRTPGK

B1: h1707-02 (antibody, human IgG4 S228P, kappa, V domains shown)
VH: EVQLVESGGGLVQPGGSLRLSCAASGFTFSDYHMYWVRQAPGKGLEWVAYISKGGISTYYPDTVKGRFTISRDNAKNSLYLQMSRLRAEDTAVYYCARQSSYDFAMDYWGRGTLVTVSS
VL: DIQMTQSPSFLSASVGDRVTITCKASQDVGTSVAWYQQKPGKAPKLLIYWASARHTGVPSRFSGSGSGTDFTLTISSLQPEDFATYYCQQYSSYPLTFGQGTKLEIKR
notes: also called humanized TIGIT antibody h1707-02
B1 was tested, and the EC50 [1] was 0.0872 nM, the “EC50 (read off the curve)” value [2] was roughly 0.3 nM and the “IC50 (read off the curve)” value [3] was roughly 3 nM. The “EC50 (read off the curve)” value [4] was roughly 0.1 nM, the IC50 [5] was 0.482 nM and the “IC50 (read off the curve)” value [6] was roughly 5 nM. The “IC50 (read off the curve)” value [7] was roughly 1 nM, the binding result [8] was “binds” and the Kd [9] was 0.108 nM. It also gave a koff [9] of 0.000188 s⁻¹ and a kon [9] of 1.74e+06 M⁻¹ s⁻¹.

B2: 10A7 hIgG4 (antibody, V domains shown)
VH: EVQLVESGGGLTQPGKSLKLSCEASGFTFSSFTMHWVRQSPGKGLEWVAFIRSGSGIVFYADAVRGRFTISRDNAKNLLFLQMNDLKSEDTAMYYCARRPLGHNTFDSWGQGTLVTVSS
VL: DIVMTQSPSSLAVSPGEKVTMTCKSSQSLYYSGVKENLLAWYQQKPGQSPKLLIYYASIRFTGVPDRFTGSGSGTDYTLTITSVQAEDMGQYFCQQGINNPLTFGDGTKLEIKR
For B2, the EC50 [1] was 0.109 nM, the “EC50 (read off the curve)” value [4] was roughly 0.2 nM and the IC50 [5] was 0.678 nM.

B3: h1711-01 (antibody, V domains shown)
VH: EVQLVQSGAEVKKPGSSVKVSCKASGGTFSNYWIGWVRQAPGQGLEWMGDIYPGGAYTNYNEKFKDRVTITADKSTSTAYMELSSLRSEDTAVYYCARGDYYDSSGRAMDYWGQGTLVTVSS
VL: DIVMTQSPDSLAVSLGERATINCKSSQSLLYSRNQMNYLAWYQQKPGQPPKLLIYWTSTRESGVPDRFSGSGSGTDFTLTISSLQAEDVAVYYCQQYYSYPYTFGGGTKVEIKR
B3 gave a Kd [10] of 1.49 nM, a koff [10] of 0.00209 s⁻¹ and a kon [10] of 1.4e+06 M⁻¹ s⁻¹.

B4: h1711-02 (antibody, human IgG4 S228P, kappa, V domains shown)
VH: EVQLVQSGAEVKKPGSSVKVSCKASGGTFSNYWIGWVRQAPGQGLEWIGDIYPGGAYTNYNEKFKDRVTITADKSTSTAYMELSSLRSEDTAVYYCARGDYYDSSGRAMDYWGQGTLVTVSS
VL: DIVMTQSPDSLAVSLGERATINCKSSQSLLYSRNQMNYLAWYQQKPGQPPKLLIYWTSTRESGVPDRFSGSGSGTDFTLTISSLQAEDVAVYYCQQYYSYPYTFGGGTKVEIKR
With B4 the Kd [10] was 1.24 nM, the koff [10] was 0.00171 s⁻¹ and the kon [10] was 1.38e+06 M⁻¹ s⁻¹.

B5: h1711-03 (antibody, human IgG4 S228P, kappa, V domains shown)
VH: EVQLVQSGAEVKKPGSSVKVSCKASGYTFSNYWIGWVRQAPGQGLEWIGDIYPGGAYTNYNEKFKDRVTITADKSTSTAYMELSSLRSEDTAVYYCARGDYYDSSGRAMDYWGQGTLVTVSS
VL: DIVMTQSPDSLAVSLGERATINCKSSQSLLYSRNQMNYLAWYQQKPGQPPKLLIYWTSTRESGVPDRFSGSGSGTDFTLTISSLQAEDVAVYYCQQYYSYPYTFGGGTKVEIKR
B5 was tested, and the Kd [10] was 0.556 nM, the koff [10] was 0.000723 s⁻¹ and the kon [10] was 1.3e+06 M⁻¹ s⁻¹.

B6: h1708-05 (antibody, human IgG4 S228P, kappa, V domains shown)
VH: EVQLVQSGAEVKKPGASVKVSCKASGYTFTNYWMHWVRQAPGQGLEWMGRIDPDSTGSKYNEKFKTRVTMTVDTSTSTVYMELSSLRSEDTAVYYCAREGAYGYYFDYWGQGTLVTVSS
VL: DIQMTQSPSSLSASVGDRVTITCRASENIYSYLAWYQQKPGKSPKLLIYNARTLAEGVPSRFSGSGSGTDFTLTISSLQPEDFATYYCQYHSGSPLPFGGGTKVEIKR
notes: also called humanized TIGIT antibody h1708-05
In the case of B6, the “IC50 (read off the curve)” value [11] is reported as roughly 1 nM.

B7: h1708-01 (antibody, human IgG4 S228P, kappa, V domains shown)
VH: EVQLVQSGAEVKKPGASVKVSCKASGYTFTNYWMHWVRQAPGQGLEWMGRIDPDSTGSKYNEKFKTRVTMTRDTSTSTVYMELSSLRSEDTAVYYCAREGAYGYYFDYWGQGTLVTVSS
VL: DIQMTQSPSSLSASVGDRVTITCRASENIYSYLAWYQQKPGKAPKLLIYNARTLAEGVPSRFSGSGSGTDFTLTISSLQPEDFATYYCQYHSGSPLPFGGGTKVEIKR
notes: also called humanized TIGIT antibody h1708-01
With B7 the “IC50 (read off the curve)” value [11] was roughly 1 nM.

B8: h1708-02 (antibody, human IgG4 S228P, kappa, V domains shown)
VH: EVQLVQSGAEVKKPGASVKVSCKASGYTFTNYWMHWVRQAPGQGLEWMGRIDPDSTGSKYNEKFKTRVTMTVDTSTSTVYMELSSLRSEDTAVYYCAREGAYGYYFDYWGQGTLVTVSS
VL: DIQMTQSPSSLSASVGDRVTITCRASENIYSYLAWYQQKPGKAPKLLIYNARTLAEGVPSRFSGSGSGTDFTLTISSLQPEDFATYYCQYHSGSPLPFGGGTKVEIKR
notes: also called humanized TIGIT antibody h1708-02
For B8, the “IC50 (read off the curve)” value [11] was roughly 1 nM.

B9: h1708-03 (antibody, human IgG4 S228P, kappa, V domains shown)
VH: EVQLVQSGAEVKKPGASVKVSCKASGYTFTNYWMHWVRQAPGQGLEWIGRIDPDSTGSKYNEKFKTRVTMTVDTSTSTAYMELSSLRSEDTAVYYCAREGAYGYYFDYWGQGTLVTVSS
VL: DIQMTQSPSSLSASVGDRVTITCRASENIYSYLAWYQQKPGKAPKLLIYNARTLAEGVPSRFSGSGSGTDFTLTISSLQPEDFATYYCQYHSGSPLPFGGGTKVEIKR
notes: also called humanized TIGIT antibody h1708-03
For B9, the “IC50 (read off the curve)” value [11] was roughly 1 nM.

B10: h1708-04 (antibody, human IgG4 S228P, kappa, V domains shown)
VH: EVQLVQSGAEVKKPGASVKVSCKASGYTFTNYWMHWVRQAPGQGLEWMGRIDPDSTGSKYNEKFKTRVTMTRDTSTSTVYMELSSLRSEDTAVYYCAREGAYGYYFDYWGQGTLVTVSS
VL: DIQMTQSPSSLSASVGDRVTITCRASENIYSYLAWYQQKPGKSPKLLIYNARTLAEGVPSRFSGSGSGTDFTLTISSLQPEDFATYYCQYHSGSPLPFGGGTKVEIKR
notes: also called humanized TIGIT antibody h1708-04
B10 was tested, and the EC50 [1] was 0.0848 nM, the “EC50 (read off the curve)” value [2] was roughly 0.3 nM and the “IC50 (read off the curve)” value [11] was roughly 1 nM. The “IC50 (read off the curve)” value [3] was roughly 2 nM, the “EC50 (read off the curve)” value [4] was roughly 0.1 nM and the IC50 [5] was 0.499 nM. For the same binder, the “IC50 (read off the curve)” value [6] was roughly 5 nM, the “IC50 (read off the curve)” value [7] was roughly 1 nM and the Kd [12] was 0.285 nM. It also gave a koff [12] of 0.000352 s⁻¹, a kon [12] of 1.24e+06 M⁻¹ s⁻¹ and a Kd [9] of 0.104 nM. It also gave a koff [9] of 0.000183 s⁻¹ and a kon [9] of 1.75e+06 M⁻¹ s⁻¹.

B11: h1708-06 (antibody, human IgG4 S228P, kappa, V domains shown)
VH: EVQLVQSGAEVKKPGASVKVSCKASGYTFTNYWMHWVRQAPGQGLEWIGRIDPDSTGSKYNEKFKTRVTMTVDTSTSTAYMELSSLRSEDTAVYYCAREGAYGYYFDYWGQGTLVTVSS
VL: DIQMTQSPSSLSASVGDRVTITCRASENIYSYLAWYQQKPGKSPKLLIYNARTLAEGVPSRFSGSGSGTDFTLTISSLQPEDFATYYCQYHSGSPLPFGGGTKVEIKR
notes: also called humanized TIGIT antibody h1708-06
In the case of B11, the “IC50 (read off the curve)” value [11] is reported as roughly 1 nM.

B12: 22G2-H3Q (antibody, human IgG4 S228P, kappa, V domains shown)
VH: QVQLQESGPGLVKPSETLSLTCTVSGGSVSSGIYYWSWIRQPPGKGLEWIGYIYYSGSTNYNPSLKSRVTISVDTSKNQFSLKLSSVTAADTAVYYCARDYYVSGNYYNVDYYFFGVDVWGQGTTVTVSS
VL: EIVLTQSPATLSLSPGERATLSCRASQSVSSYLAWYQQKPGQAPRLLIYDASNRATGIPARFSGSGSGTDFTLTISSLEPEDFAVYYCQQRSNWPPLFTFGPGTKVDIKR
B12 was tested, and the “IC50 (read off the curve)” value [6] was roughly 5 nM, the “IC50 (read off the curve)” value [7] was roughly 1 nM and the Kd [12] was 0.166 nM. It also gave a koff [12] of 0.000404 s⁻¹, a kon [12] of 2.44e+06 M⁻¹ s⁻¹ and a Kd [9] of 0.709 nM. It also gave a koff [9] of 0.000379 s⁻¹ and a kon [9] of 535000 M⁻¹ s⁻¹.

B13: ch1711 (antibody, V domains shown)
VH: QVQLQQSGTELVRPGTSVKMSCKASGYTFTNYWIGWAKQRPGHGLEWIGDIYPGGAYTNYNEKFKDKATLTADKSSSTAYMQFSSLTSEDSAIYYCTRGDYYDSSGRAMDYWGQGTSVTVSS
VL: DIVMSQSPSSLAVSVGEKVSMSCKSSQSLLYSRNQMNYLAWYQQKPGQSPKLLIYWTSTRESGVPDRFTGSGSGTDFTLTISSVKAEDLAVYYCQQYYSYPYTFGGGTKLEIK
notes: also called chimeric antibody corresponding to m1711
B13 gave a Kd [10] of 0.249 nM, a koff [10] of 0.000455 s⁻¹ and a kon [10] of 1.83e+06 M⁻¹ s⁻¹.

Source: patent US20200255516A1 (JIANGSU HENGRUI MEDICINE, published 2020)
